Reference: the DeepSol protein solubility set

Experiment: soluble on expression in E. coli; label from the status in PepcDB or PDB records

Q: Which “soluble on expression in E. coli” value does the source give for “MTEQYYKIALLFNANKVYDRQVVEGIGQYIQASQCMWDIFVEDEFIYHTDTINQLSIDGIIADFDDPKTVELLQHTLIPTIAVGGSYKQADFYPHFPYIATDNMALVEMALSHLQEKGLSQFAFYGLQVNTHKHWSIERRDAFVELMEKNHYPIYLYEGVQVHAQNWLEEQQKLIVWLKSLPSHTGIIAVTDARARHLLQACEYSKIAVPEELCVVGIDNEELIQYLSRMSLSSVEQGTREIGYQAAKLLHKLLNGQKVSHTPILIPPITVHSRNSTDYRSLTDPLVIQAMHYIRHRACHRIKVGQVLDHLETSRSNLEQRFKNEMNKTIHQVIHEEKISRAKNLLQQTDISIKEITEICGYPSIQYFYSVFKKEFEMTPKEFRLNC” here?
A: not soluble

Q: With “MAEPARARPKITPETQHYWDGAKQGELRLQRCDSCAHAYFPPRPFCPKCGSREVSVFKASGKGTLYSYVINHRPLAAGFTEPYAIAVVELEEGPRMMSNILECPQTPEALELDMKLEVTFQKIDDNLTLPQFRPAKG” as the sequence, how does the “soluble on expression in E. coli” value read?
A: not soluble

Q: Which “soluble on expression in E. coli” value does the source give for “SMYKVRDISLAEWGRRELELAENEMPGLMELRREYGPSKPLKGAKIAGCLHMTMQTAVLIETLVELGAEVRWASCNIFSTQDHAAAAIAKRGIPVFAWKGETEEEYMWCMKQTLKGFSGDGYPNMLLDDGGDLTNYVLDECKELDGKIYGVSEETTTGVKNLYKRLQRGKLTIPAMNVNDSVTKSKFDNLYGCRESLVDGIKRATDVMIAGKTACVCGYGDVGKGCAAALRGFGARVVVTEVDPINALQAAMEGYQVLLVEDVVEEAHIFVTTTGNDDIITSEHFPRMRDDAIVCNIGHFDTEIQVAWLKANAKERVEVKPQVDRYTMANGRHIILLAEGRLVNLGCASGHPSFVMSNSFCNQVLAQIELWTNRDTGKYPRGAKAQVYFLPKKLDEKVAALHLGKLGAKLTKLTPKQAEYINCPVDGPFKPDHYRY” here?
A: soluble

Q: For “MGSDKIHHHHHHVLETFETVAKAVADPNRVRILKLLESGELCVCQITAVLDLAAATVSKHLSLLKAAGLLQQRREGKWAYYRLADRALNPYAPAFLGLIGATLADDPTLTEDARILSKVNALPLQVLCDQGRAALDLTRPTSPAPSCCGTPMMTETSFNVLFLCTGNSARSILAESILNREGAGKFRAYSAGSHPKGQIDPTVLALLKKTNHPTETLRSKSWDEFAAPGAPTLDFVFTVCDNAAGEVCPIWPGQPMTAHWGVPDPAGFVGSEAEKAAFCGEVMRLLRTRISIFAALPIASLDRLSLQRRLKEIGKVALESRETRESGVL”, which “soluble on expression in E. coli” value is on record?
A: not soluble

Q: Which “soluble on expression in E. coli” value does the source give for “MKIRALLLALGMATVLTGCQNMDSNGLLSSGAEAFQAYTLSDAQVKALSDQSCQELDSKAKIAPASSEYTKRLAKIAAALGDNINGQPVNYKVYETKDVNAFAMANGCIRVYSGLMDMMTDNEVEAVIGHEMGHVALGHVKKGMQVALGTNAVRVAAASAGGVVGSLSQSQLGDLGEKLVNSQFSQRQESEADDYSYDLLRKRGISPAGLATSFEKLAKLEAGRQSSMFDDHPASAARAQHVRDRMSADGIKLEHHHHHH” here?
A: soluble

Q: For “MATVSRLRPYATTVFAEMSALATRIGAVNLGQGFPDEDGPPKMLQAAQDAIAGGVNQYPPGPGSAPLRRAIAAQRRRHFGVDYDPETEVLVTVGATEAIAAAVLGLVEPGSEVLLIEPFYDSYSPVVAMAGAHRVTVPLVPDGRGFALDADALRRAVTPRTRALIINSPHNPTGAVLSATELAAIAEIAVAANLVVITDEVYEHLVFDHARHLPLAGFDGMAERTITISSAAKMFNCTGWKIGWACGPAELIAGVRAAKQYLSYVGGAPFQPAVALALDTEDAWVAALRNSLRARRDRLAAGLTEIGFAVHDSYGTYFLCADPRPLGYDDSTEFCAALPEKVGVAAIPMSAFCDPAAGQASQQADVWNHLVRFTFCKRDDTLDEAIRRLSVLAERPATGVPRGLEHHHHHH”, which “soluble on expression in E. coli” value is on record?
A: soluble

Q: For “MSLVEDGKATLGLRNFYINRNFTNPSNPQSKAEEWTQSFILDARSGFTEGPIGFGVDVLGLWSVKLDGGGGTYGTALLPRHDDGRPADDYGRLAVAGKARISKTELKIGEWMPVLPILRSDDGRSLPQTFRGGQVTSNEIAGLTLYGGQFRGNSPRNDASMEDMSYGGGVSDRFNFVGGEYKFNQDRTQVGLWNAVLKDVYQQQYLQLSHSQPVGDWTLGANLGYFHGDEDGSERAGQLDNKTYSGMFSAKYGGSTFWVGLQKVDGDTWMRVNGTSGGTLANDSYNSSFDNANERSWQVRHDFNFVTVGVPGLTLMNRYISGRDVHSGGVTDGKEWVRETELAYVIQSGAFKDLSVKWRNSSIRRDYSNNEFDENRLIFNYPLSLLEGHHHHHH”, which “soluble on expression in E. coli” value is on record?
A: soluble

Q: For “MARAIWKGAISFGLVHIPVALNTAVRTERVDFDWLDKRSMEPVGYKRVNKVTGKEIDKDNIVKGVEFEKGRYVVISEEEIRKARPETTQTIDIFSFVEAGDIPLQHFDTPYYLTPDRRGGKVYALLRETLEKTGKVALATVVLHTRQHLALLRPLDHALVMITLRWPEEVRGLETLELDASVT”, which “soluble on expression in E. coli” value is on record?
A: not soluble

Q: For “MKVSELMTTDPITVSIDDTFSKVMSKMNETGIHQLPVMDGDRYAGMITYSDLLKKRSIQVKSKISNYTISTPTLNADDDVLEAVRLIKDTGLSALPVFQKGKLVGIISRTDIIKNLPQIVDVRDVRIFQIMSSDPIYVYEDDDIEEAFDSMRMLNEVEIPVASRDEKLSGIIRLNSILNILYRQKEKIKYGGYGEKEPVEIKCKSLMDPPVSVDRYAGIDEAVKLMMQYSLHIMPVTDSGKIVGIVDFSDLINMIKTESKEGILIEISGLDVYDEDLYDIAFELSERFLDKFSKMTDVSQGKLLIHVMKYKTQGSTKYSIRTRISAPPLFLVQNGSGWNFAEVLGEIFDRYEERIKKMKEKQ”, which “soluble on expression in E. coli” value is on record?
A: not soluble

Q: Which “soluble on expression in E. coli” value does the source give for “MKWSSMLKVSAISLSVFTAVSAKAQLGEPEIEDLKFGFIKLTDMAPLAVAYEKGFFEDEGLYVTLEAQANWKVLLDRVIDGELDGAHMLAGQPLGATIGVGTKAEVITAFSMDLNGNAITVSNDTWEQMKPHIPKQPDGKPVHPIKADSLKPVVDSYRDKGKSFNMGMVFPVSTHNYELRYWLAAGGIHPGFYAPDSGDNSGQLDADVLLSVTPPPQMPATMEAGTIKGYCVGEPWNQQAVFKGIGTPVVTDYEIWKNNPEKVFGVSKAWAEKNPNTHIRVVKALIRAAHWLDENSNANRQEAVKMLAKSEYVGADADVIANSMTGTFEYEKGDKRDVPDFNVFFRHNATYPYYSDAIWYLTQMRRWGQISSEKSDDWYMDVAKEVYRPDIYQQAAQALIEDGVLSKKDFPDFSAEDGFRPPQTHFIDNIVYDGREPNKYLEKFSIGLKGKDKVMAGDPLEHHHHHH” here?
A: soluble

Q: Which “soluble on expression in E. coli” value does the source give for “MGSDKIHHHHHHMERLDVFDCSNVLIASYFTDDRGCAHENREHTLIYLCSGELEIEERGKKTVLHPGDCAFMRRDNRMWLQKKVEDGKPYRSVVLKFSRPFLREFYQTLNRQQIPTDSEREKVSLRVLPSNRPDIRSLFESVIPYFDAGEKPSEDVLKLKMVEGIYVLLNTDRNLYASLFDFVEPWKIDILDYLNENYMCDLSLEEIASYTGRSLATFKRDFAKVSNLTPQKWIVKRRLEAAHGLIKSGKKKVTEACFDVGFKNLSHFSKIYKEAYGVAPSW” here?
A: not soluble

Q: With “MSLKAIGFEQPFKLSDGNLFKTFNLDIPEPKVHEILVKIQSISVNPVDTKQRLMDVSKAPRVLGFDAIGVVESVGNEVTMFNQGDIVYYSGSPDQNGSNAEYQLINERLVAKAPKNISAEQAVSLPLTGITAYETLFDVFGISRNRNENEGKTLLIINGAGGVGSIATQIAKAYGLRVITTASRNETIEWTKKMGADIVLNHKESLLNQFKTQGIELVDYVFCTFNTDMYYDDMIQLVKPRGHIATIVAFENDQDLNALKPKSLSFSHEFMFARPLNQTDDMIKHHEYLEDITNKVEQNIYQPTTTKVIEGLTTENIYQAHQILESNTMIGKLVINLNEGHHHHHH” as the sequence, how does the “soluble on expression in E. coli” value read?
A: soluble

Q: Which “soluble on expression in E. coli” value does the source give for “MGSDKIHHHHHHMSYRYNSVVDLIHKQISAGTLKVGDRLPSIRQLSLLTGFSTVTIHHAYELLESHGYCSARPRSGFYLVRTPLQQMGDFPHDGENSIEPISIVDFPHALLLSWQKRTLDAFGAPHPSADLFDCADVDRVMCRLLRRRKAIAANSVGGDPELRLQIAKRAAQRGVVTRPQDIVITGSAIQAFNLCLDALTDPGDVVLVESPSYFPALSSIKRRNLRVIEIYSHPVNGIDPDQLEHLVRNNEIRVAVLMASNHFPTGITYSEDRMKRIVSVAKKNDVTIIANSMLDDITYDSVTDNSLRKFDSGETVLQFSSFECGLSPQYGLGWIVAGKHSQKILAASYLGDYAPNDQRIQQAVAEYLSSRSHDRQLRRIRETLASRMERGLQLLADSLPTGCSVSRPTGGYMCWVRGPQKFTSMTAVLQLHKQNVSILPGSVFSAAARSFENFFALNLSFPWSAENEAKIGSIGDLIAQIVGR” here?
A: not soluble

Q: With “PLWVAPDGHIFLEAFSPVYKYAQDFLVAIAEPVCRPTHVHEYKLTAYSLYAAVSVGLQTSDITEYLRKLSKTGVPDGIMQFIKLCTVSYGKVKLVLKHNRYFVESCHPDVIQHLLQDPVIRECRLRNSEGEATELITETF” as the sequence, how does the “soluble on expression in E. coli” value read?
A: not soluble

Q: With “GFRWASNATFTLNRNKVKRLAGGSTNPVTGELIDMPNMPVGWLGKENVAPRVILTEGGTMTDIYVYNELTKDNNGNIKVDAQTGGLSMHTAETPTKVGNLNANYNLGWTNNFTYKGINLGVVLSARVGGLAYSATQGVLDYYGVSSITANARDNKGVPMNNGKVDTQKYYQTIGTGEGGYGRYYLYSATNVRLQELSLSYTLPKKWLNNVANVTFGLVGRNLWMIYCKAPFDPELSASTSSNYYMNVDYFMQPSMRNIGFNVKVQF” as the sequence, how does the “soluble on expression in E. coli” value read?
A: not soluble

Q: For “GMKTSVKFETIFPLTTAPLIQCITNEITCESMANALLYIDAKPIMADDPREFPQMFQQTSALVLNLGHLSQEREQSLLAASDYARQVNKLTVVDLVGYGASDIRNEVGEKLVHNQPTVVKGNLSEMRTFCQLVSHGRGVDGSPLDQSEEAIEELIQALRQQTQKFPQTVFLATGIQDVLVSQEQVIVLQNGVPELDCFTGTGDLVGALVAALLGEGNAPMTAAVAAVSYFNLCGEKAKTKSQGLADFRQNTLNQLSLLMKEKDWFEAVKGRVL”, which “soluble on expression in E. coli” value is on record?
A: soluble

Q: Which “soluble on expression in E. coli” value does the source give for “MINSINIQIRETNTDDFDSIMTVEKQAFGYDKEAQLVADLLADKTAEPMVSLLAFYKGEAVGHILFTRAYFDGQGALQMMHILAPLAVKPEYQRQGIGGMLIRAGIERLQEKGSCLVFVLGHKEYYPEYGFIPDAARLGYPAPYPILEQFSDYWMVQAISPKGFDVDKGKIRCSDELNKPEHWRDDESDR” here?
A: not soluble

Q: For “MLPSWKAFKAHNILRILTRFQSTKIPDAVIGIDLGTTNSAVAIMEGKVPRIIENAEGSRTTPSVVAFTKDGERLVGEPAKRQSVINSENTLFATKRLIGRRFEDAEVQRDINQVPFKIVKHSNGDAWVEARNRTYSPAQIGGFILNKMKETAEAYLAKSVKNAVVTVPAYFNDAQRQATKDAGQIIGLNVLRVVNEPTAAALAYGLDKSEPKVIAVFDLGGGTFDISILDIDNGIFEVKSTNGDTHLGGEDFDIYLLQEIISHFKKETGIDLSNDRMAVQRIREAAEKAKIELSSTLSTEINLPFITADAAGPKHIRMPFSRVQLENITAPLIDRTVDPVKKALKDARITASDISDVLLVGGMSRMPKVADTVKKLFGKDASKAVNPDEAVALGAAIQAAVLSGEVTDVLLLDVTPLSLGIETLGGVFTKLIPRNSTIPNKKSQIFSTAASGQTSVEVKVFQGERELVKDNKLIGNFTLAGIPPAPKGTPQIEVTFDIDANGIINVSAKDLASHKDSSITVAGASGLSDTEIDRMVNEAERYKNQDRARRNAIETANKADQLANDTENSIKEFEGKLDKTDSQRLKDQISSLRELVSRSQAGDEVNDDDVGTKIDNLRTSSMKLFEQLYKNSDNPETKNGRENK”, which “soluble on expression in E. coli” value is on record?
A: not soluble

Q: For “MENVSDDRFAEMVWEAVSGGATLKDVHGIPQDMMEGLYAHAYDFYHKGRLDEAETFFRFLCIYDFYNPDYIMGLAAVCQLKKQFQKAVDLYAVAFALSKNDYRPVFFTGQCQLFMRKAAKARQCFELVCEQSGLEHHHHHH”, which “soluble on expression in E. coli” value is on record?
A: not soluble
